Assay results published in patent publication US20230105982A1 (Merck Sharp & Dohme, published 2023).
Starred links: 1 amine or outer side, 2 acyl side, 3 side chain; linkers in the order of their positions; H or OH if unused. Non-standard residues stand in square brackets, D forms with d. Groups on a side chain read outwards from the residue. No end group written: not given here. *: point of attachment. C16 = C16 fatty acyl group, not further defined; C18 diacid = O=C(O)CCCCCCCCCCCCCCCCC(=O)*; Lys(N3) = [N-]=[N+]=NCCCC[C@H](N)C(=O)O; γGlu = O=C(O)[C@H](CCC(=O)[*:2])N[*:1]; Met(O2) = CS(=O)(=O)CC[C@H](N)C(=O)O; Palmitoyl = CCCCCCCCCCCCCCCC(=O)*; AEEA = NCCOCCOCC(=O)O; Aib = CC(C)(N)C(=O)O

B1: PEP76 (control molecule of Table 7) (peptide)
peptide: H[dS]QGTFTSDK([γGlu-γGlu-Palmitoyl])SKYLDERAAQDFVQWLLDT-NH2
modifications: N-terminus assumed
SMILES: CCCCCCCCCCCCCCCC(=O)N[C@@H](CCC(=O)N[C@@H](CCC(=O)NCCCC[C@H](NC(=O)[C@H](CC(=O)O)NC(=O)[C@H](CO)NC(=O)[C@@H](NC(=O)[C@H](Cc1ccccc1)NC(=O)[C@@H](NC(=O)CNC(=O)[C@H](CCC(N)=O)NC(=O)[C@@H](CO)NC(=O)[C@@H](N)Cc1c[nH]cn1)[C@@H](C)O)[C@@H](C)O)C(=O)N[C@@H](CO)C(=O)N[C@@H](CCCCN)C(=O)N[C@@H](Cc1ccc(O)cc1)C(=O)N[C@@H](CC(C)C)C(=O)N[C@@H](CC(=O)O)C(=O)N[C@@H](CCC(=O)O)C(=O)N[C@@H](CCCNC(=N)N)C(=O)N[C@@H](C)C(=O)N[C@@H](C)C(=O)N[C@@H](CCC(N)=O)C(=O)N[C@@H](CC(=O)O)C(=O)N[C@@H](Cc1ccccc1)C(=O)N[C@H](C(=O)N[C@@H](CCC(N)=O)C(=O)N[C@@H](Cc1c[nH]c2ccccc12)C(=O)N[C@@H](CC(C)C)C(=O)N[C@@H](CC(C)C)C(=O)N[C@@H](CC(=O)O)C(=O)N[C@H](C(N)=O)[C@@H](C)O)C(C)C)C(=O)O)C(=O)O

How the values were obtained:
Experiment in all cases: cell-based or functional assay
[1] = biological target: human GLP-1 receptor (GLP1R) (human, UniProt P43220 24-463)
[2] = biological target: human Glucagon receptor (GCGR) (human, UniProt P47871 26-477)
human glucagon receptor = human glucagon receptor (human, UniProt P47871 26-477)
human GLP-1 receptor = human GLP-1 receptor (human, UniProt P43220 24-463)

Row | Binder | hGLP1R EC50 (nM), cAMP assay [1] | hGCGR_EC50 (nM), cAMP assay [2] | Incretin Receptor Assay (cAMP) EC50 (human glucagon receptor) | Incretin Receptor Assay (cAMP) EC50 (human GLP-1 receptor)
1 | H[Aib]QGTFTSDYSKYLDARAAK([AEEA-AEEA-γGlu-C20‑OH])DFV[Lys(N3)]WL[Met(O2)]DT-NH2 [PEP31] | 1.38 nM | 4.24 nM |  | 
2 | HXEGTFTSDKSKYLDERAAQDFVXWLLDT (D-serine at 2; Lys 10 conjugated to γEγE-C16; Nle(εN3) at 24; C-terminal amide) [PEP75] |  | > 5 nM |  | 
3 | H[Aib]QGTFTSDYSKYLDARAAK([AEEA-AEEA-γGlu-C18 diacid])DFV[Lys(N3)]WL[Met(O2)]DT-NH2 [PEP30] | 0.5 nM | 2.27 nM |  | 
4 | H[dS]QGTFTSDK([γGlu-γGlu-C16])SKYLDERAAQ[Lys(N3)]FVQWLLDT-NH2 [PEP1] |  | 0.01 nM |  | 
5 | B1 |  |  | 0.009 nM | 0.007 nM
